Assay [1] concerns tobacco (cv. Petit Havana). The experiment in a line: Postemergence glyphosate tolerance of dgt-28 transformed T1 and T2 tobacco. The assay is classed as in vivo. Particulars: 14 DAT, 2240 g ae/ha glyphosate (DURANGO DMA). The text has this: Postemergence herbicide tolerance in dgt-28 transformed T1 tobacco. T1 resistant plants from each event used in the progeny testing were given unique identifiers and sampled for zygosity analyses of the dgt-28 gene. Zygosity data were used to assign 2 hemizygous and 2 homozygous replicates to each rate of glyphosate applied allowing for a total of 4 replicates per treatment. These plants were compared against wildtype Petite havana tobacco. All plants were sprayed with a track sprayer set at 187 L/ha. The plants were sprayed from a range of 560-4480 g ae/ha DURANGO DMA™. All applications were formulated in water with the addition of 2% w/v ammonium sulfate (AMS). Plants were evaluated at 7 and 14 days after treatment. Plants were assigned an injury rating with respect to overall visual stunting, chlorosis, and necrosis. The T1 generation is segregating, so some variable response is expected due to difference in zygosity.
Rates of DURANGO DMA™ ranging from 420-3360 g ae/ha glyphosate were applied to 2-3 leaf tobacco as previously described.

The subject of assay [2] is chloroplasts of maize protoplasts. The experiment in a line: Maize protoplast transient assay: microscopy of TraP8-YFP. The assay is classed as cell-based, Zea mays. Particulars: B104 maize protoplasts, 12 hours after transfection. An excerpt: The Trap8 chimeric chloroplast transit peptide-encoding polynucleotide sequence (SEQ ID NO:5) and the linker-encoding polynucleotide sequence (SEQ ID NO:7) were cloned upstream of the yellow fluorescent protein gene and incorporated into construct pDAB106597 (FIG. 8) for testing via the maize protoplast transient in planta assay. The resulting constructs contained a single plant transcription unit (PTU). The PTU was comprised of the Zea mays Ubiquitin 1 promoter (ZmUbi1 promoter; Christensen, A., Sharrock R., and Quail P., (1992) Maize polyubiquitin genes: structure, thermal perturbation of expression and transcript splicing, and promoter activity following transfer to protoplasts by electroporation, Plant Molecular Biology, 18:675-689), TraP-yellow fluorescent protein fusion gene (TraP8-YFP; US Patent App. 2007/0298412), and Zea mays Peroxidase 5 3′ untranslated region (ZmPer5 3′UTR; U.S. Pat. No. 6,384,207). The constructs were confirmed via restriction enzyme digestion and sequencing.
Seed of Zea mays var. […]
Transfection of 100 to 500 μl of protoplasts (1−5×10^5) was completed by adding the protoplasts to a 2 ml microfuge tube containing about 40 μg of plasmid DNA (pDAB106597), at room temperature. […] Fluorescence of YFP was viewed by microscopy after 12 hours of incubation. […]

B1: TraP8: chimeric chloroplast transit peptide SEQ ID NO:3; N-terminus from Brassica napus EPSPS CTP, C-terminus from Brassica rapa (protein)
chain: MAQSSRICHGVQNPCVIISNLSKSNQNKSPFSVSLKTHQQQRRAYQISSWGLKKSNNGSVIRPVK
modifications: TraP8 chimeric chloroplast transit peptide
notes: N-terminus from Brassica napus EPSPS CTP, C-terminus from Brassica rapa
In the case of B1, the “% Injury Ave” value in assay [1] was found to be 9.3%. Besides, the “Localization of YFP fluorescence in maize protoplasts” value in assay [2] is listed as “accumulated within the chloroplasts”.
